Assay [1] addresses T1, mouse CD137 protein (Biacore) (mouse, UniProt P20334 24-178, limits assumed).
T1 construct: Construct used as SPR analyte not described
T1 sequence: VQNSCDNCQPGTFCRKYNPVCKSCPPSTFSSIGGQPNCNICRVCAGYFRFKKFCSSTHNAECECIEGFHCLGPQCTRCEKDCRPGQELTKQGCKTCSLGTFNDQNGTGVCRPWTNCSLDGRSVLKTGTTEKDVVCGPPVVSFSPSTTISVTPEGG
As to the kind of experiment: SPR Biacore. (In general: SPR reads the build-up and loss of mass on a sensor chip optically.)

Assay [2] deals with T2, rat CD137 on the cell surface (rat, UniProt Q4W8J3 24-258).
T2 sequence: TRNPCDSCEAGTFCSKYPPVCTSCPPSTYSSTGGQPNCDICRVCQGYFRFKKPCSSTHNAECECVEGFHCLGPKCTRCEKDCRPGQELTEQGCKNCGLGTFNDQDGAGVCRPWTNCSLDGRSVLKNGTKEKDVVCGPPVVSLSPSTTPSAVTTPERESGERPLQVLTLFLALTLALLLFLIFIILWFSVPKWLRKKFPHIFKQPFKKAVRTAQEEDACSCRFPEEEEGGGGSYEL
The assay can be described thus: flow cytometry, HEK293F cells expressing CD137 [Cont.].

Assay [3] has as its target T3, full-length monkey CD137 on the cell surface (cynomolgus monkey, UniProt Q07011 24-179 (human entry)).
T3 chain: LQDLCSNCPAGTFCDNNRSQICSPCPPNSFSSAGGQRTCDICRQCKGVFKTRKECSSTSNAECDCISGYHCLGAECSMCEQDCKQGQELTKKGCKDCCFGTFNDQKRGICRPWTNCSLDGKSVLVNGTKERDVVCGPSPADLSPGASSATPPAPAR
The assay can be described thus: flow cytometry, HEK293F cells expressing CD137 or mutant [Cont.].

Assay [4] has as its target T4, OX40 overexpressed on HEK293F cells (UniProt P43489 29-277, limits assumed).
T4 construct: whole, on cells
T4 sequence (looked up): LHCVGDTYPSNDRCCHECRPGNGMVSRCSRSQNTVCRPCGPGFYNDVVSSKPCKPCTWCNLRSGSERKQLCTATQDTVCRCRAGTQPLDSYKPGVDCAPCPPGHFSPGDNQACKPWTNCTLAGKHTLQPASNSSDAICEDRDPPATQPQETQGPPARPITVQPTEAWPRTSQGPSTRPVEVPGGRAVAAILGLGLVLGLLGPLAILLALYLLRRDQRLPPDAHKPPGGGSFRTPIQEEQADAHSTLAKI
The assay can be described thus: flow cytometry, HEK293F cells expressing the receptor, antibody 100 nM [Cont.].

Assay [5] deals with T5, CD40 overexpressed on HEK293F cells (UniProt P25942 21-277, limits assumed).
T5 construct: whole, on cells
The description is as above.

The target in assay [6] is T6, GITR overexpressed on HEK293F cells (UniProt Q9Y5U5 26-241, limits assumed).
T6 construct: whole, on cells
T6 sequence (looked up): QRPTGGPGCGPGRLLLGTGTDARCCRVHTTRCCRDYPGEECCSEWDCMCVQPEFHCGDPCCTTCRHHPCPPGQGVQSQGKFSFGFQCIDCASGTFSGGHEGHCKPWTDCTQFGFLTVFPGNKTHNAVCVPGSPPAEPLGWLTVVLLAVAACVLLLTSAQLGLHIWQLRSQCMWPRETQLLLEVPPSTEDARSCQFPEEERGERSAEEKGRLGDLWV
The description is as above.

The target in assay [7] is T7, CD27 overexpressed on HEK293F cells (UniProt P26842 20-260, limits assumed).
T7 construct: whole, on cells
T7 sequence (looked up): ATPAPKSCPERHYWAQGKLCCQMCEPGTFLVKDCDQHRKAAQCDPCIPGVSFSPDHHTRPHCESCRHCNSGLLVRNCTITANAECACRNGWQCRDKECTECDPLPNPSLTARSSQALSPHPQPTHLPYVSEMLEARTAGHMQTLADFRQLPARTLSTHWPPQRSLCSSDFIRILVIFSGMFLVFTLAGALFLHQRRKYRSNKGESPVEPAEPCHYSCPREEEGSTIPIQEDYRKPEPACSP
Described as above.

For assay [8], the target named is T8, Hu_T35A (human, UniProt Q07011 18-255).
T8 construct: On HEK293F; also called human CD137 T35A
As to the kind of experiment: flow cytometry, HEK293F. (In general: In flow cytometry, cells or beads pass a laser one at a time.)

Assay [9] has as its target T9, Hu_F36A (human, UniProt Q07011 18-255).
T9 construct: On HEK293F; also called human CD137 F36A
As to the kind of experiment: flow cytometry, HEK293F.

Assay [10] addresses T10, Hu_F53A (human, UniProt Q07011 18-255).
T10 construct: On HEK293F; also called human CD137 F53A
As to the kind of experiment: flow cytometry, HEK293F.

The target of assay [11] is T11, Hu_F72A (human, UniProt Q07011 18-255).
T11 construct: On HEK293F; also called human CD137 F72A
As to the kind of experiment: flow cytometry, HEK293F.

Assay [12] concerns the target T12, Hu_N83A (human, UniProt Q07011 18-255).
T12 construct: On HEK293F; also called human CD137 N83A
The assay can be described thus: flow cytometry, HEK293F.

Assay [13] has as its target T13, Hu_F92A (human, UniProt Q07011 18-255).
T13 construct: On HEK293F; also called human CD137 F92A
As to the kind of experiment: flow cytometry, HEK293F.

In assay [14] the target is T14, full-length mouse CD137 on the cell surface (mouse, UniProt P20334 24-178).
T14 sequence: T1 sequence
As to the kind of experiment: cell-based or functional assay.

For assay [15], the target named is T4, OX40 overexpressed on HEK293F cells. The assay can be described thus: flow cytometry, HEK293F cells expressing the receptor.
In assay [16] the target is T5, CD40 overexpressed on HEK293F cells. Described as above.
In assay [17] the target is T6, GITR overexpressed on HEK293F cells. The description is as above.
In assay [18] the target is T7, CD27 overexpressed on HEK293F cells. Described as above.

Residue numbers refer to the chain shown, from its start.

T5 sequence (P25942 21-277 limits assumed): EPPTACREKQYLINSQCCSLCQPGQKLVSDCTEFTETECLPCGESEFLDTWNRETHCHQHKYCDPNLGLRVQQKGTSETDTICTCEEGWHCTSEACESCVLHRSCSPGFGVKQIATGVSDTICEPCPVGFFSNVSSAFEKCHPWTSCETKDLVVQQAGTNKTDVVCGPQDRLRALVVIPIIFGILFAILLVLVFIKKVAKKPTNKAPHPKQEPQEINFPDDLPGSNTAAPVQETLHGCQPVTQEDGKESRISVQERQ
T12 sequence (Q07011 18-255 N83A): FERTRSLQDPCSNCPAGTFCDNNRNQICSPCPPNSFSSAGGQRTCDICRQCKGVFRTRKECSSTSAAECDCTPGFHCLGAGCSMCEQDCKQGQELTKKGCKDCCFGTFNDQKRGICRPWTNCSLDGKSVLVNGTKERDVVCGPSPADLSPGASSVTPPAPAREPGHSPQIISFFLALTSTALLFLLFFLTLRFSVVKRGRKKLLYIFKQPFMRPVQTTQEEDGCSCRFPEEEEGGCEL
T8 sequence (Q07011 18-255 T35A): as the sequence (Q07011 18-255 N83A) above, with T18A, A66N counted along it
T10 sequence (Q07011 18-255 F53A): as the sequence (Q07011 18-255 N83A) above, with F36A, A66N counted along it
T9 sequence (Q07011 18-255 F36A): as the sequence (Q07011 18-255 N83A) above, with F19A, A66N counted along it
T11 sequence (Q07011 18-255 F72A): as the sequence (Q07011 18-255 N83A) above, with F55A, A66N counted along it

B1: AG10059 (antibody, human IgG4 S228P, kappa, V domains shown)
VH: EVQLVESGGGLVQPGGSLRLSCAASGYSITSGHYWAWIRQAPGKGLEWVSSISGYGSTTYYADSVKGRFTISRDNSKNTLYLQLNSLRAEDTAVYYCARGGSDAVLGDWFAYWGQGTLVTVSS
VL: DIQLTQSPSSLSASVGDRVTITCRASQGIGSFLAWYQQKPGKAPKLLIYDASNLETGVPSRFSGSGSGTDFTLTISSLQPEDFATYYCQQGYYLWTFGQGTKVEIKR
With B1, the results for the binding result in [1] and in [2] were “no binding” and “no binding (tested: 100 nM (text paragraph 220))”, respectively. Also, the “% in upper right quadrant” value in [3] was 42.4%. The Mean came out at 6780 in [4], 7260 in [5], 5980 in assay [6] and 13200 in [7].

B2: AG10058 (antibody, human IgG4 S228P, kappa, V domains shown)
VH: EVQLVESGGGLVQPGGSLRLSCAASGFSLSTSGVGVGWIRQAPGKGLEWLALIDWDDDKYYSPSLKSRLTISRDNSKNTLYLQLNSLRAEDTAVYYCARGGSDTVLGDWFAYWGQGTLVTVSS
VL: B1 VL with G28S, I29V, G30S, S31P, F32Y, N53S, T56S, Y93S
Turning to B2, the binding result in assay [8], in assay [9], in assay [10], in [11], in assay [12] and in assay [13] was “no binding” throughout. For the same molecule, the binding result in assay [15], in [16], in [17] and in [18] was “no binding (tested: 100 nM (text paragraph 226))” each time. The “NFκB luciferase reporter, 293T cells with mouse CD137: EC50 (read off the curve)” value in [14] was approximately 3 nM.

These data come from patent US20190055314A1 (ADAGENE, published 2019).
